Laboratory results as given in patent US7067277B1, “Chimeric G proteins and uses thereof” (H. Lundbeck A/S, priority 1999, dated 2006).

Legend:
Type in all cases: cell-based
[1] = system: GALR1, Y1, NPFF2, and 5HT1D; experiment: Cl- current recording in Xenopus oocytes, C. elegans versus human chimera
Experimental: (§1) Oocytes were harvested from Xenopus laevis and injected with mRNA transcripts as previously described (Quick and Lester, 1994; Smith et al., 1997). Receptor and chimeric G protein α subunit RNA transcripts were synthesized using the T7 polymerase (“Message Machine,” Ambion) from linearized plasmids or PCR products containing the complete coding region of the genes. Oocytes were injected with 5–25 ng synthetic receptor RNA and incubated for 3–8 days at 17 degrees. Three to eight hours prior to recording, oocytes were injected with 500 pg chimeric Gα subunit mRNA. Dual electrode voltage clamp (Axon Instruments Inc.) was performed using 3 M KCl-filled glass microelectrodes having resistances of 1–2 MOhm. Unless otherwise specified, oocytes were voltage clamped at a holding potential of −80 mV. During recordings, oocytes were bathed in continuously flowing (1–3 ml/min) medium containing 96 mM NaCl, 2 mM KCl, 1.8 mM CaCl2, 1 mM MgCl2, and 5 mM HEPES, pH 7.5 (ND96). Drugs were applied by local perfusion from a 10 μl glass capillary tube fixed at a distance of 0.5 mm from the oocyte. Experiments were carried out at room temperature. All values are expressed as mean±standard error of the mean.

Human NPFF2 = target: T1, Human NPFF2 (Homo sapiens, UniProt Q9Y5X5); experiment: Cl- current recording in Xenopus oocytes expressing GPCR and chimeric G protein; conditions: Xenopus oocytes expressing Human NPFF2 and chimera; mean ± s.e.m
T1 construct: linearized plasmids or PCR products containing the complete coding region of the genes; expressed in transfected cells; host or cells: Xenopus laevis oocytes (receptor cRNA injected)
T1 sequence (Q9Y5X5 103-522): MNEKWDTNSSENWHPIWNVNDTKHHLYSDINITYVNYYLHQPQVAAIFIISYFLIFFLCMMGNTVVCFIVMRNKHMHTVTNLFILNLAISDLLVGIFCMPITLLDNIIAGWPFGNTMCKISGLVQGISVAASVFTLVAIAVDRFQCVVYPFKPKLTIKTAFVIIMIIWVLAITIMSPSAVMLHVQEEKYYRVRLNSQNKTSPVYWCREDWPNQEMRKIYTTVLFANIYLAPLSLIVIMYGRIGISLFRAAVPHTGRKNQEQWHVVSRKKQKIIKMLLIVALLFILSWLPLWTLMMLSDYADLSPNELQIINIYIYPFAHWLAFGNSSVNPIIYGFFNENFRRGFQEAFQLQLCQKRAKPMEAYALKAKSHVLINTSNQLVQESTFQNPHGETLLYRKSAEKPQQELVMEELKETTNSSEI
Experimental: as §1

Rat GALR1 = target: T2, Rat GALR1 (Rattus norvegicus, UniProt Q62805); experiment: as above; conditions: Xenopus oocytes expressing Rat GALR1 and chimera; mean ± s.e.m
T2 construct: linearized plasmids or PCR products containing the complete coding region of the genes; expressed in transfected cells; host or cells: Xenopus laevis oocytes (receptor cRNA injected)
T2 sequence (Q62805 1-346): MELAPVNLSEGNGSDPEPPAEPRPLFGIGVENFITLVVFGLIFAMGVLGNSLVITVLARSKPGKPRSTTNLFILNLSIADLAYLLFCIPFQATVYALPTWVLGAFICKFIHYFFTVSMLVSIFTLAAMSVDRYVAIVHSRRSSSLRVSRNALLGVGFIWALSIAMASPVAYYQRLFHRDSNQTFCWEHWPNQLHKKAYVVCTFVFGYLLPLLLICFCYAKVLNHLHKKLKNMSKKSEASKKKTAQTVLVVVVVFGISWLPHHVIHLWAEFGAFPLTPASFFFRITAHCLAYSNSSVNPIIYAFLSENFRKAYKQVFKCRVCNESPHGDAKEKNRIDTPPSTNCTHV
Experimental: as §1

Human NPFF1 = target: T3, Human NPFF1 (Homo sapiens, UniProt Q9GZQ6); experiment: as above; conditions: Xenopus oocytes expressing Human NPFF1 and chimera, 1 μM NPFF, mean ± s.e.m
T3 construct: linearized plasmids or PCR products containing the complete coding region of the genes; expressed in transfected cells; host or cells: Xenopus laevis oocytes (receptor cRNA injected)
T3 sequence (Q9GZQ6 whole entry): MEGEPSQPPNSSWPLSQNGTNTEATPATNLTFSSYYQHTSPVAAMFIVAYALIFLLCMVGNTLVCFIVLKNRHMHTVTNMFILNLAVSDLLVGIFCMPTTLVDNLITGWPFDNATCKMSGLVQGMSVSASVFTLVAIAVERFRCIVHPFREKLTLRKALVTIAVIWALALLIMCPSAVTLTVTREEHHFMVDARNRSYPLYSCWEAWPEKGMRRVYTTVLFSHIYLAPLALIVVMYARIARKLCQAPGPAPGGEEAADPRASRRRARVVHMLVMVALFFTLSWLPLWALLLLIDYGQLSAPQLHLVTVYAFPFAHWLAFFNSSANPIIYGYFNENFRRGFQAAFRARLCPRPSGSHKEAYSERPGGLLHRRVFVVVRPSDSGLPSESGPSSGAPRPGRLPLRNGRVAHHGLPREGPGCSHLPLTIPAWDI
Experimental: as §1

Rabbit 5HT1D = target: T4, Rabbit 5HT1D (Oryctolagus cuniculus, UniProt P49145); experiment: as above; conditions: Xenopus oocytes expressing Rabbit 5HT1D and chimera; mean ± s.e.m
T4 construct: linearized plasmids or PCR products containing the complete coding region of the genes; expressed in transfected cells; host or cells: Xenopus laevis oocytes (receptor cRNA injected)
T4 sequence (P49145 whole entry): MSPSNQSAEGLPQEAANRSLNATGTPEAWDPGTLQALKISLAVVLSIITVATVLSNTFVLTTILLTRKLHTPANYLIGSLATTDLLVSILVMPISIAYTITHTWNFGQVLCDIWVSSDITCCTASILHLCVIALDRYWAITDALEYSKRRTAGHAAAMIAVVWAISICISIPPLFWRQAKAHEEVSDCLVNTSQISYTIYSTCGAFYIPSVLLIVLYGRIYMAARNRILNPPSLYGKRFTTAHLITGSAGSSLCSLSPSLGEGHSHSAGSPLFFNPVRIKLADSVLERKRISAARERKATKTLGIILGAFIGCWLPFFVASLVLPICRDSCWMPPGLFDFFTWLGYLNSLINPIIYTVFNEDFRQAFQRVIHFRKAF
Experimental: as §1

Rat Y1 = target: T5, Rat Y1 (Rattus norvegicus, UniProt P21555); experiment: as above; conditions: Xenopus oocytes expressing Rat Y1 and chimera; mean ± s.e.m
T5 construct: linearized plasmids or PCR products containing the complete coding region of the genes; expressed in transfected cells; host or cells: Xenopus laevis oocytes (receptor cRNA injected)
T5 sequence (P21555 1-382): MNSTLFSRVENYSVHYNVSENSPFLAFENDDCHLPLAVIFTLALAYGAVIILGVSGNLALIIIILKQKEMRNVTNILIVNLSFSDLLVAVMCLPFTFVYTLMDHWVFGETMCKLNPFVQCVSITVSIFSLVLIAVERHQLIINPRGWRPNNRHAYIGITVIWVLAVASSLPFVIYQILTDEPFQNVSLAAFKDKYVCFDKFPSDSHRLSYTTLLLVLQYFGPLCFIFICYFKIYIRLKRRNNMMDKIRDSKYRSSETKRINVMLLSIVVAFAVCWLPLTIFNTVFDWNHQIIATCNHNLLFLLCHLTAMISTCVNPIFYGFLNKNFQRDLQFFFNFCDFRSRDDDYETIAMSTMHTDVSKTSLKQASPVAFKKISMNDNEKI
Experimental: as §1

Rat Y5 = target: T6, Rat Y5 (Rattus norvegicus, UniProt Q63634); experiment: as above; conditions: Xenopus oocytes expressing Rat Y5 and chimera; mean ± s.e.m
T6 construct: linearized plasmids or PCR products containing the complete coding region of the genes; expressed in transfected cells; host or cells: Xenopus laevis oocytes (receptor cRNA injected)
T6 sequence (Q63634 1-445): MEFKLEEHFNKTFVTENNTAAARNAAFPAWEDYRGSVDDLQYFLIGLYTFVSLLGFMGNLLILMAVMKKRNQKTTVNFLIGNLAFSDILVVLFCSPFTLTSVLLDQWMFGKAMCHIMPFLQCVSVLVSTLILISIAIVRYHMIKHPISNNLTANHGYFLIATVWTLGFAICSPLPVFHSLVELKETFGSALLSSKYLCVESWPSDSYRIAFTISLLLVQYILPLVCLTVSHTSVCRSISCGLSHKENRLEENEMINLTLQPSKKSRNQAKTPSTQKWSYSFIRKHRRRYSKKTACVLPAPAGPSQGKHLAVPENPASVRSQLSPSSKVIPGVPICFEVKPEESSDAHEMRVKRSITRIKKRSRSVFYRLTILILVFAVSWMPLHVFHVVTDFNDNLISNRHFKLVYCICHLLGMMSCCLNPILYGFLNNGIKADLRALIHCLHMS
Experimental: as §1

B1: cGαq/z5: chimeric Gα subunit: C-terminal final 5 amino acids of C. elegans Gαq replaced with those of hGαz (SEQ ID NO: 1) (protein)
chain: MACCLSEEAREQKRINQEIEKQLQRDKRNARRELKLLLLGTGESGKSTFIKQMRIIHGQGYSEEDKRAHIRLVYQNVFMAIQSMIRAMDTLDIKFGNESEELQEKAAVVREVDFESVTSFEEPYVSYIKELWEDSGIQECYDRRREYQLTDSAKYYLSDLRRLAVPDYLPTEQDILRVRVPTTGIIEYPFDLEQIIFRMVDVGGQRSERRKWIHCFENVTSIMFLVALSEYDQVLVECDNENRMEESKALFRTIITYPWFTNSSVILFLNKKDLLEEKILYSHLADYFPEYDGPPRDPIAAREFILKMFVDLNPDADKIIYSHFTCATDTENIRFVFAAVKDTILQHNLKYIGLC
modifications: C. elegans
In the case of B1, the “increase in response over currents from oocytes expressing the human version of the chimera” value [1] is reported as 2–3 fold, the “Response amplitudes (nA) in oocytes” value (Human NPFF2) is reported as 1121 ± 261 nA and the “Response amplitudes (nA) in oocytes” value (Rat GALR1) is reported as 91 ± 38 nA. The “Response amplitudes (nA) in oocytes” value (Human NPFF1) was 1258±159 nA, the “Response amplitudes (nA) in oocytes” value (Human NPFF1; listed as CGαq/z5) was 1258 ± 159 nA and the “Response amplitudes (nA) in oocytes” value (Rabbit 5HT1D) was 150 ± 105 nA. The “Response amplitudes (nA) in oocytes” value (Rat Y1) was 1549 ± 168 nA.

B2: cGαq/z9: C. elegans Gαq with Gαz portion of the C-terminal tail extended to 9 amino acids (SEQ ID NO: 2) (protein)
chain: MACCLSEEAREQKRINQEIEKQLQRDKRNARRELKLLLLGTGESGKSTFIKQMRIIHGQGYSEEDKRAHIRLVYQNVFMAIQSMIRAMDTLDIKFGNESEELQEKAAVVREVDFESVTSFEEPYVSYIKELWEDSGIQECYDRRREYQLTDSAKYYLSDLRRLAVPDYLPTEQDILRVRVPTTGIIEYPFDLEQIIFRMVDVGGQRSERRKWIHCFENVTSIMFLVALSEYDQVLVECDNENRMEESKALFRTIITYPWFTNSSVILFLNKKDLLEEKILYSHLADYFPEYDGPPRDPIAAREFILKMFVDLNPDADKIIYSHFTCATDTENIRFVFAAVKDTILQNNLKYIGLC
modifications: C. elegans
For B2, the “Response amplitudes (nA) in oocytes” value (Human NPFF1) was 1449 ± 398 nA, the “Response amplitudes (nA) in oocytes” value (Rabbit 5HT1D) was 34 ± 12 nA and the “Response amplitudes (nA) in oocytes” value (Rat Y1) was 300 ± 177 nA. For the same molecule, the “Response amplitudes (nA) in oocytes” value (Rat Y5) was 65 ± 34 nA.
